T1: Human CD122 (human, UniProt P14784 27-551)
T1 sequence: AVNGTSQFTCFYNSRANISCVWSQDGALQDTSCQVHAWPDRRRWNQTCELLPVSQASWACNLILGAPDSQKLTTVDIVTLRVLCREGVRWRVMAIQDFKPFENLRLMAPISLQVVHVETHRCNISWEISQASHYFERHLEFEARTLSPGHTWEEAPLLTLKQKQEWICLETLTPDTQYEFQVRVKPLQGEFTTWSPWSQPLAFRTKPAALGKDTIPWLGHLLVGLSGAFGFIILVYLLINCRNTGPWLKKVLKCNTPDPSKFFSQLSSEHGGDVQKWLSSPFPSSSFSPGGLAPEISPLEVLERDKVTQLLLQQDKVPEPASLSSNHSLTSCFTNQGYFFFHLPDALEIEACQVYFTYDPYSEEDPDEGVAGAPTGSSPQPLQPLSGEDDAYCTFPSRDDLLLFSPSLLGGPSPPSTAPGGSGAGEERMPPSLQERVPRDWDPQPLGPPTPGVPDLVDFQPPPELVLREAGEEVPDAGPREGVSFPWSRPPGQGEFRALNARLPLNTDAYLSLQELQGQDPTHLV

T2: Human BCAM protein (human, UniProt P50895 32-547, limits assumed)
T2 construct: Protein used in ELISA; also called BCAM (ELISA antigen)
T2 sequence: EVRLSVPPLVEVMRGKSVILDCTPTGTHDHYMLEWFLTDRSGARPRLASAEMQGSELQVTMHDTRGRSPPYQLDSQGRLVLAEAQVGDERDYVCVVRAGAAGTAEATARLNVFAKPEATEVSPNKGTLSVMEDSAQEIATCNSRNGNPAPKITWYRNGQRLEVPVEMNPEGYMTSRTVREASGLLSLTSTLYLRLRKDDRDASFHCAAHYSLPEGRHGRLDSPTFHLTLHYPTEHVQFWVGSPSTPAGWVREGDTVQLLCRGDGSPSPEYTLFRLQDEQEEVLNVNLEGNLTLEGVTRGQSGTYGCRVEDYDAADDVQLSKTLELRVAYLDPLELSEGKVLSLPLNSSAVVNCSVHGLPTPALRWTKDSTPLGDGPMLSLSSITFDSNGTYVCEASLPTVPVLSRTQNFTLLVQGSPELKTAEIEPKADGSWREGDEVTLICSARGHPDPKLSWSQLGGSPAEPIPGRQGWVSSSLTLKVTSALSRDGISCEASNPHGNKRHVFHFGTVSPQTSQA

T3: Human CD122 His tagged (human, UniProt P14784 27-240)
T3 construct: also called hCD122; monomeric antigen; not shown: His tag
T3 sequence: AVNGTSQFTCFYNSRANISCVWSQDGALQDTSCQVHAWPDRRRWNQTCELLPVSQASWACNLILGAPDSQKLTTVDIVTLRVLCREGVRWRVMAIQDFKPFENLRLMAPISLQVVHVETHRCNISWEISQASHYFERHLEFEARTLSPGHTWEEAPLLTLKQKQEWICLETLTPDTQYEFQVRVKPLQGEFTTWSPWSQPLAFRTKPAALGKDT

T4: Rhesus CD122 His tag (rhesus monkey, UniProt Q38J85 27-240 (cynomolgus entry))
T4 construct: also called rhCD122; cynomolgus and/or rhesus monkey CD122 His tag; not shown: His tag
T4 sequence: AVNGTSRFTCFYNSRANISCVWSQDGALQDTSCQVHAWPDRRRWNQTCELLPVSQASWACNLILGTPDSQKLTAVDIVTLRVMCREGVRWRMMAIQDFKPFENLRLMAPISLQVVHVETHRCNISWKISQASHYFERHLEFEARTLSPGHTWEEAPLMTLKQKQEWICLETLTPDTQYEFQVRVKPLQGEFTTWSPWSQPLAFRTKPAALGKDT

T5: Human CILP2 protein (human, UniProt Q8IUL8 21-1156, limits assumed)
T5 construct: also called cartilage intermediate layer protein 2
T5 sequence (looked up): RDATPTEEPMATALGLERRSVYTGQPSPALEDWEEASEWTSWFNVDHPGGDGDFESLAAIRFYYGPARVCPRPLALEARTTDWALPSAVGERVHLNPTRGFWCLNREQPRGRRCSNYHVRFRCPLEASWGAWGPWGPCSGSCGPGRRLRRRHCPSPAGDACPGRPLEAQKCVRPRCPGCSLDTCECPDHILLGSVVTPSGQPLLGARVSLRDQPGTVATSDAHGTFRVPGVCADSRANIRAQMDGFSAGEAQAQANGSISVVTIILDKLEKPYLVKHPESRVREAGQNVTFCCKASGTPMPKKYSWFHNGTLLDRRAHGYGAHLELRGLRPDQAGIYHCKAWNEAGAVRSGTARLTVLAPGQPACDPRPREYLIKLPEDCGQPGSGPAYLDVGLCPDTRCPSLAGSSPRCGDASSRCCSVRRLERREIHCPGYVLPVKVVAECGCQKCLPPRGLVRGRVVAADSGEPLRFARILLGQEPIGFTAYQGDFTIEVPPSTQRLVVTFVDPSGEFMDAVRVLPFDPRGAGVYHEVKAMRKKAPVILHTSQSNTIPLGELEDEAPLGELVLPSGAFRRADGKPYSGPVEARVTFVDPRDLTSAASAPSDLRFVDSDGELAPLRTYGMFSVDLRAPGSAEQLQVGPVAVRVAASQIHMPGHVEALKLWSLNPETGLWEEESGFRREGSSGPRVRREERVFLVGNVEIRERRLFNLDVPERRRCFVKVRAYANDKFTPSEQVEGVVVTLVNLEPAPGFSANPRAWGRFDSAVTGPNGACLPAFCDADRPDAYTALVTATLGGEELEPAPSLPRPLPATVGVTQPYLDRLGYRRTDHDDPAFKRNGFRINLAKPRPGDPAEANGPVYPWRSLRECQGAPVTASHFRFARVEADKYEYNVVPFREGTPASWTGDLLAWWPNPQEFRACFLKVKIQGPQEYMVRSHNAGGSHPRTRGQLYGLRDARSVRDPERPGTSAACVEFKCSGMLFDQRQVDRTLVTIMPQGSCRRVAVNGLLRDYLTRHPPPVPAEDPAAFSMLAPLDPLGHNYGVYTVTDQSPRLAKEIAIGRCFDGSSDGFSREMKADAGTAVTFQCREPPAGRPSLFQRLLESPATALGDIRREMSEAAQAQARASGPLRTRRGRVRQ


How the values were obtained:
[1] = molecular target: T1, Human CD122; experiment: cell-based or functional assay
[2] = molecular target: T2, Human BCAM protein; experiment: binding ELISA on human BCAM protein, IgG at log10 about 1.1 to 3.0 nM, OD450nm
[3] = molecular target: T3, Human CD122 His tagged; experiment: Biacore SPR, Fab, 1:1 binding
[4] = molecular target: T3, Human CD122 His tagged; experiment: Biacore, Fab affinity and kinetics on hCD122
[5] = molecular target: T6, Human neudesin protein (human, UniProt Q9UMX5 32-172); experiment: BIACORE SPR, Fab at 62.5, 125, 250, 500 and 1000 nM on human neudesin protein; Rmax
T6 construct: also called NENF

[6] = molecular target: T4, Rhesus CD122 His tag; experiment: Biacore SPR, Fab, 1:1 binding
[7] = molecular target: T4, Rhesus CD122 His tag; experiment: Biacore SPR, Fab
[8] = molecular target: T3, Human CD122 His tagged; experiment: Biacore SPR, Fab
[9] = molecular target: T5, Human CILP2 protein; experiment: BIACORE SPR, Fab at 62.5, 125, 250, 500 and 1000 nM on human CILP2 protein; Rmax

T6 sequence (Q9UMX5 32-172 limits assumed): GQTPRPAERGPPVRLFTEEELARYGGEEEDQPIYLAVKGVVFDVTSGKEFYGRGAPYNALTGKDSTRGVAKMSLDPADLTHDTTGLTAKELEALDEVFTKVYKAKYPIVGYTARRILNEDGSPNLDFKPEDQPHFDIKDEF

IC50, IL-15-induced CD4+ T cell accumulation [1] | IC50, IL-15-induced skin-resident CD8+ T cell accumulation [1] | fold improvement of potency over VillMab-1, IL-15 stimulated M07e assay [1] | binding result [2] | Kd [3] | koff [3] | kon [3] | Kd [4] | koff [4] | kon [4] | binding result [5] | Kd [6] | koff [6] | kon [6] | Kd [7] | Kd [8] | binding result [9] | Binder
2.1 µg/mL | 1.9 µg/mL | ~2 fold | no binding (tested: 1000 nM (log10 3.0)) | – | – | – | – | – | – | – | – | – | – | – | – | – | MAB05 (antibody, V domains shown, also called Mab5; clone 05) VH: EVQLLESGGGLVQPGGSLRLSCAASGFTVTSYAVHWVRQAPGKGLEWLGVIWSGGSTDYNAAFISRLTISKDNSKNTVYFQMNSLRAEDTAVYYCARAGDANYDGFAYWGQGTLVTVSS VL: DIQMTQSPSSLSASVGDRVTITCQASQSVSFLYWYQQRPGKAPRLLIYDTSNLASGVPSRFSGSGSGTSYTFTISSLQPEDIATYYCQQWSTYPLTFGQGTKVEIK
1.8 µg/mL | 1.8 µg/mL | ~2 fold | no binding (tested: 1000 nM (log10 3.0)) | – | – | – | – | – | – | – | – | – | – | – | – | – | MAB06 (antibody, V domains shown, also called Mab6; clone 06) VH: EVQLLESGGGLVQPGGSLRLSCAASGFTVTSYAVHWVRQAPGKGLEWLGVIWSGGSTDYNAAFISRLTISKDNSKNTVYFQMNSLRAEDTAVYYCARAGDANYDGFAYWGQGTLVTVSS VL: DIQMTQSPSSLSASVGDRVTITCQASSSVSFMYWYQQRPGKAPRLLIYDTSNLASGVPSRFSGSGSGTSYTFTISSLQPEDIATYYCQQWSTYPLTFGQGTKVEIK
– | – | – | – | 16.5 nM | 0.00372 s⁻¹ | 226000 M⁻¹ s⁻¹ | 12.4 nM | 0.0034 s⁻¹ | 270000 M⁻¹ s⁻¹ | no binding (tested: 1000 nM) | 12 nM | 0.00279 s⁻¹ | 233000 M⁻¹ s⁻¹ | 10.2 nM | 12.4 nM | no binding (tested: 1000 nM) | VillFab-1 (Fab, V domains shown, also called Villmab-1 in human Fab format) VH: EVQLLESGGGLVQPGGSLRLSCAASGFSVTSYGVHWIRQAPGKGLEWLGVIWSGGSTDYNAAFISRLTISKDNSKNTVYFQMNSLQAEDTAIYYCARAGDYNYDGFAYWGQGTLVTVSS VL: DIVLTQSPSSLSASVGDRVTITCSGSSSVSFMYWYQQRPGKAPRLLIYDTSNLASGVPSRFSGSGSGTSYTFTISSLQPEDIATYYCQQWSTYPLTFGQGTKVEVK

Reference: patent publication US20230357420A1 (VILLARIS THERAPEUTICS, published 2023)
